Test results published in publication PMC5656322, “BAK1 is involved in AtRALF1-induced inhibition of root cell expansion” (PLoS Genetics, 2017).
Where no end group is shown, it is not given here.

Experiments:
[1] = system: HA-BAK1-ECD; assay: Co-immunoprecipitation in vitro; assay type: binding, Arabidopsis thaliana; conditions: 100 nM each protein, pH 6.3, overnight 4 °C, agarose anti-HA beads
Protocol: The purified recombinant proteins AtRALF1 and HA-BAK1-ECD and the synthetic peptides RALF1(9–49) and RALF1(I6A) were combined in 200 μl of interaction buffer pH 6.3 (100 mM NaCl; 1 mM PMSF; 0.5%Triton X; 2.7 mM KCl; 8 mM NaH2PO4; 2 mM KH2PO4) overnight at 4 °C. A 100-nM concentration of each protein was used. This solution was incubated with agarose anti-HA beads (EZview Red Anti-HA Affinity Gel, Sigma) for 30 min at 4 °C to immunoprecipitate the proteins, washed 5 times with interaction buffer, eluted in 1X SDS sample buffer containing 10% β-mercaptoethanol and applied to an SDS-PAGE gel. The immunoprecipitated HA-BAK1-ECD and co-immunoprecipitated AtRALF1 were analyzed by protein blotting as described. The primary and secondary antibodies used to detect AtRALF1 were anti-AtRALF1 (1:10,000, Celula B, Immunology Laboratory, UFRGS, Brazil) and goat anti-rabbit HRP-conjugated secondary antibody (1: 10,000, BioRad), respectively.

[2] = biological target: T1, BAK1-ECD (Arabidopsis thaliana, UniProt Q94F62); assay: Isothermal titration calorimetry (ITC); assay type: binding
T1 construct: Isothermal titration calorimetry (ITC) of the extracellular domain of BAK1 (BAK1-ECD) vs. AtRALF1; made in house; host or cells: Escherichia coli Rosetta DE3 or BL21
T1 sequence (Q94F62 26-225 limits assumed): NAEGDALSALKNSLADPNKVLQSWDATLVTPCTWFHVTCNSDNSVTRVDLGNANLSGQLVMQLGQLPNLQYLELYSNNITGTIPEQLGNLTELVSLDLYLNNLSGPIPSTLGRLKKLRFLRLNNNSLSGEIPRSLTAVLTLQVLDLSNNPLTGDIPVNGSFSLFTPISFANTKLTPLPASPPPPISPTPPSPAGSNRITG
Description: Fig 6 AtRALF1 interacts physically with BAK1 protein. (A) The active AtRALF1 peptide interacts with the extracellular domain (ECD) of BAK1 (BAK1-ECD) in yeast. The AtRALF1 protein fused to the GAL4 DNA-binding domain (AtRALF1-pGBKT7) was used as bait to test its interaction with the extracellular domain of the proteins fused to the GAL4 activation domain (pGADT7): BAK1 (BAK1-ECD), BAK7 (BAK7-ECD), BRI1 (BRI1-ECD) and FLS2 (FLS2-ECD). (B) Blueprint showing the truncated proteins from the extracellular domain of BAK1 tested in the two-hybrid assay. The extracellular domain of BAK1 comprises leucine zippers (LZ), 5 leucine rich-regions (LRRs) and a proline-rich region (pro-rich). (C) AtRALF1-pGBKT7 was used as bait to test its interaction with truncated proteins fused to the GAL4 activation domain (pGADT7). The transformed yeast cells in (A) and (C) were selected on a synthetic complete medium lacking leucine, tryptophan and histidine to test interactions. (D, E) Co-immunoprecipitation (Co-IP) in vitro between the extracellular domain of BAK1 (HA-BAK1-ECD) and AtRALF1 recombinant purified proteins. HA-BAK1-ECD was detected with an anti-HA antibody. AtRALF1 was detected with an anti-RALF antibody. (F) Recombinant AtRALF1 is co-immunoprecipitated with the BAK1-GFP protein expressed in tobacco. BAK1-GFP was detected with an anti-GFP antibody. […] (G) Isothermal titration calorimetry (ITC) of the extracellular domain of BAK1 (BAK1-ECD) vs. AtRALF1 in ITC buffer (15 mM HEPES, pH 6.8). ITC experiments were simulated using 28 injections of BAK1-ED (0.7 mM, vol 10 μL) on AtRALF1 (0.03 mM vol cell = 1.4 mL) at 25°C. Kd = dissociation constant; N = number of binding sites.
ITC was performed using a VP ITC with a 1.4 ml standard cell and a 293 μl titration syringe. Proteins were dissolved in ITC buffer (15 mM HEPES (4-(2-hydroxyethyl)-1-piperazineethanesulfonic acid, pH 6.8) and the experiments were performed at 25°C. Molar protein concentration for BAK1-ECD and AtRALF1 were calculated using their molecular weight of 25,654.04 and 7,631 Da, respectively (determined by HPLC). The concentrations for the complex titrations were 0.7 mM of protein (BAK1-ECD) in the syringe and 0.03 mM of ligand (AtRALF1) in the cell at time intervals of 300 s (28 injections of volume 10 μl) to ensure that the titration peak returned to the baseline.
ITC data were corrected for the heat of dilution by subtracting the mixing enthalpies for titrant solution injections into protein free ITC buffer. Data were analyzed using the Origin software (version 7.0) as provided by the manufacturer. Independent experiments were repeated three times with similar results.

Substance	co-immunoprecipitation with HA-BAK1-ECD [1]	interaction with BAK1-ECD by ITC ([2]; BAK1-ECD 0.7 mM into 0.03 mM peptide, 15 mM HEPES, pH 6.8, 25°C)	number of binding sites ([2]; ITC experiment 1 of 3)	number of binding sites ([2]; ITC experiment 2 of 3)	N (number of binding sites) ([2]; representative experiment, Fig 6G, 15 mM HEPES, pH 6.8, 25°C) [sites]
RALF1(9–49): inactive AtRALF1 peptide which has a deletion of the first 8 amino acids (QSLKRNSVPCSRRGASYYNCQNGAQANPYSRGCSKIARCRS; ends and bridges not checked; cysteine pairing not given here; UniProt Q9SRY3 80-120, looked up, fragment)	did not co-immunoprecipitate with BAK1	no interaction between the inactive analog and BAK1-ECD	–	–	–
AtRALF1: root-specific RALF isoform in Arabidopsis; recombinant peptide hormone produced in E. coli (ATTKYISYQSLKRNSVPCSRRGASYYNCQNGAQANPYSRGCSKIARCRS; ends and bridges not checked; cysteine pairing not given here)	co-immunoprecipitated	–	1.27	1.5	1.27
